Laboratory results from PMC6355839, “Functional role of PGAM5 multimeric assemblies and their polymerization into filaments” (Nature Communications, 2019).

B1: ∆90 PGAM5 H105A (residues 91–289), catalytically dead phosphatase domain (domain or fragment, UniProt Q96HS1 91-289, looked up)
chain: HYKAKATRHIFLIRASQYHVDGSLEKDRTLTPLGREQAELTGLRLASLGLKFNKIVHSSMTRAIETTDIISRHLPGVCKVSTDLLREGAPIEPDPPVSHWKPEAVQYYEDGARIEAAFRNYIHRADARQEEDSYEIFICHANVIRYIVCRALQFPPEGWLRLSLNNGSITHLVIRPNGRVALRTLGDTGFMPPDKITRS
notes: PGAM5 long isoform (PGAM5L), residues 91-289, phosphatase domain, H105A; His6 followed by a TEV site (ENLYFQS); cleavage not described; also called Δ90 PGAM5 H105A; ∆90 H105A PGAM5; source: E. coli BL21 DE3 pLysS, purified (Ni-NTA, SEC)

Columns and labels:
[1] = target: the molecule itself; experiment: SEC; Superose 6 10/300 GL Increase; 20 mM Tris-Cl pH 8.0, 150 mM NaCl, 0.5 mM TCEP; salt titration up to 1 M NaCl
[2] = target: the molecule itself; experiment: crystal structure; ∆90 H105A PGAM5 7.5 mg/mL with ASK1 peptide:MM peptide:protein 3:3:1; 100 mM Tris-Cl pH 7.0, 200 mM MgCl2, 10% PEG 8000; 2.6 Å; twelve molecules in the asymmetric unit
[3] = target: the molecule itself; experiment: crystal structure; ∆90 H105A PGAM5 5 mg/mL with ASK1 peptide 5:1, without MM peptide; 100 mM HEPES pH 7.5, 200 mM MgCl2, 30% PEG 400; 1.7 Å; two molecules in the asymmetric unit
[4] = target: B1; experiment: crystal structure; ∆90 H105A PGAM5 7.5 mg/mL with ASK1 peptide:MM peptide:protein 3:3:1; 100 mM Tris-Cl pH 7.0, 200 mM MgCl2, 10% PEG 8000; 2.6 Å; twelve molecules in the asymmetric unit; settings: both partners purified
[5] = target: the molecule itself; experiment: cryo-EM structure; 2D class averages only (top view, 4.5 Å); 0.10 mg/mL in 20 mM Tris-Cl pH 8.0, 600 mM NaCl, 0.5 mM TCEP
[6] = target: the molecule itself; experiment: cell-based or functional assay
[7] = target: the molecule itself; experiment: negative-stain electron microscopy; samples from SEC peaks (~0.01–0.1 mg/mL), 0.75% uranyl formate; 150 mM NaCl buffer; filaments decompose into rings at 300 and 750 mM NaCl

Binder	stoichiometry N [1]	Kcat/Km of dephosphorylation of the ASK1 phosphopeptide (20 nM enzyme) [6] [M⁻¹ s⁻¹]	also measured
∆90 PGAM5 (residues 91–289), isolated phosphatase domain, wild type (domain or fragment, UniProt Q96HS1 91-289, looked up, PGAM5 long isoform (PGAM5L), residues 91-289, phosphatase domain; His6 followed by a TEV site (ENLYFQS); cleavage not described; also called Δ90 PGAM5; source: E. coli BL21 DE3 pLysS, purified (Ni-NTA, SEC on Superose 6)) HYKAKATRHIFLIRHSQYHVDGSLEKDRTLTPLGREQAELTGLRLASLGLKFNKIVHSSMTRAIETTDIISRHLPGVCKVSTDLLREGAPIEPDPPVSHWKPEAVQYYEDGARIEAAFRNYIHRADARQEEDSYEIFICHANVIRYIVCRALQFPPEGWLRLSLNNGSITHLVIRPNGRVALRTLGDTGFMPPDKITRS	2		
B1			stoichiometry N [2]: 12; stoichiometry N [3]: 2
GPGVWDPNWDRREP (PGAM5 linker domain residues 54-67, holding the multimerization motif WDxxWD (58-63); source: synthetic peptide, bought: Elim Biopharma) [PGAM5 MM peptide (linker domain residues 54–67, multimerization motif)]			binding result [4]: binds
∆48 PGAM5 (residues 49–289), wild type (domain or fragment, UniProt Q96HS1 49-289, looked up, PGAM5 long isoform (PGAM5L, residues 1-289), residues 49-289: linker domain with the multimerization motif (58-63) and the PGAM phosphatase domain; His6 is followed by a TEV site (ENLYFQS); the methods describe no TEV cleavage; also called Δ48 PGAM5; ∆48 WT; source: E. coli BL21 DE3 pLysS, purified (Ni-NTA, SEC on Superose 6)) GGARPGPGVWDPNWDRREPLSLINVRKRNVESGEEELASKLDHYKAKATRHIFLIRHSQYHVDGSLEKDRTLTPLGREQAELTGLRLASLGLKFNKIVHSSMTRAIETTDIISRHLPGVCKVSTDLLREGAPIEPDPPVSHWKPEAVQYYEDGARIEAAFRNYIHRADARQEEDSYEIFICHANVIRYIVCRALQFPPEGWLRLSLNNGSITHLVIRPNGRVALRTLGDTGFMPPDKITRS	2	19800	stoichiometry N [5]: 12
∆48 PGAM5 Y198E (domain or fragment, UniProt Q96HS1 49-289, looked up, PGAM5 long isoform (PGAM5L), residues 49-289, Y198E; also called ∆48 Y198E; source: E. coli BL21 DE3 pLysS, purified (Ni-NTA, SEC)) GGARPGPGVWDPNWDRREPLSLINVRKRNVESGEEELASKLDHYKAKATRHIFLIRHSQYHVDGSLEKDRTLTPLGREQAELTGLRLASLGLKFNKIVHSSMTRAIETTDIISRHLPGVCKVSTDLLREGAPIEPDPPVSHWKPEAVQYEEDGARIEAAFRNYIHRADARQEEDSYEIFICHANVIRYIVCRALQFPPEGWLRLSLNNGSITHLVIRPNGRVALRTLGDTGFMPPDKITRS	2	10000	
∆48 PGAM5 R65A (domain or fragment, UniProt Q96HS1 49-289, looked up, PGAM5 long isoform (PGAM5L), residues 49-289, R65A; also called ∆48 R65A; source: E. coli BL21 DE3 pLysS, purified (Ni-NTA, SEC)) GGARPGPGVWDPNWDRAEPLSLINVRKRNVESGEEELASKLDHYKAKATRHIFLIRHSQYHVDGSLEKDRTLTPLGREQAELTGLRLASLGLKFNKIVHSSMTRAIETTDIISRHLPGVCKVSTDLLREGAPIEPDPPVSHWKPEAVQYYEDGARIEAAFRNYIHRADARQEEDSYEIFICHANVIRYIVCRALQFPPEGWLRLSLNNGSITHLVIRPNGRVALRTLGDTGFMPPDKITRS	2	3170	
∆48 PGAM5 R269E (domain or fragment, UniProt Q96HS1 49-289, looked up, PGAM5 long isoform (PGAM5L), residues 49-289, R269E; source: E. coli BL21 DE3 pLysS, purified (Ni-NTA, SEC)) GGARPGPGVWDPNWDRREPLSLINVRKRNVESGEEELASKLDHYKAKATRHIFLIRHSQYHVDGSLEKDRTLTPLGREQAELTGLRLASLGLKFNKIVHSSMTRAIETTDIISRHLPGVCKVSTDLLREGAPIEPDPPVSHWKPEAVQYYEDGARIEAAFRNYIHRADARQEEDSYEIFICHANVIRYIVCRALQFPPEGWLRLSLNNGSITHLVIRPNGEVALRTLGDTGFMPPDKITRS			binding result [7]: binds
∆48 PGAM5 A4 (WDxxWD of the MM replaced by AAxxAA) (domain or fragment, UniProt Q96HS1 49-289, looked up, PGAM5 long isoform (PGAM5L), residues 49-289, W58A/D59A/W62A/D63A; also called ∆48 A4; A4 mutant; source: E. coli BL21 DE3 pLysS, purified (Ni-NTA, SEC)) GGARPGPGVAAPNAARREPLSLINVRKRNVESGEEELASKLDHYKAKATRHIFLIRHSQYHVDGSLEKDRTLTPLGREQAELTGLRLASLGLKFNKIVHSSMTRAIETTDIISRHLPGVCKVSTDLLREGAPIEPDPPVSHWKPEAVQYYEDGARIEAAFRNYIHRADARQEEDSYEIFICHANVIRYIVCRALQFPPEGWLRLSLNNGSITHLVIRPNGRVALRTLGDTGFMPPDKITRS	2		
∆48 PGAM5 R288E (domain or fragment, UniProt Q96HS1 49-289, looked up, PGAM5 long isoform (PGAM5L), residues 49-289, R288E; also called ∆48 R288E; source: E. coli BL21 DE3 pLysS, purified (Ni-NTA, SEC)) GGARPGPGVWDPNWDRREPLSLINVRKRNVESGEEELASKLDHYKAKATRHIFLIRHSQYHVDGSLEKDRTLTPLGREQAELTGLRLASLGLKFNKIVHSSMTRAIETTDIISRHLPGVCKVSTDLLREGAPIEPDPPVSHWKPEAVQYYEDGARIEAAFRNYIHRADARQEEDSYEIFICHANVIRYIVCRALQFPPEGWLRLSLNNGSITHLVIRPNGRVALRTLGDTGFMPPDKITES		13700	stoichiometry N [7]: 12
∆48 PGAM5 H105A (domain or fragment, UniProt Q96HS1 49-289, looked up, PGAM5 long isoform (PGAM5L), residues 49-289, H105A; also called ∆48 H105A; source: E. coli BL21 DE3 pLysS, purified (Ni-NTA, SEC)) GGARPGPGVWDPNWDRREPLSLINVRKRNVESGEEELASKLDHYKAKATRHIFLIRASQYHVDGSLEKDRTLTPLGREQAELTGLRLASLGLKFNKIVHSSMTRAIETTDIISRHLPGVCKVSTDLLREGAPIEPDPPVSHWKPEAVQYYEDGARIEAAFRNYIHRADARQEEDSYEIFICHANVIRYIVCRALQFPPEGWLRLSLNNGSITHLVIRPNGRVALRTLGDTGFMPPDKITRS			binding result [1]: binds
